This assay has as its target SARS-CoV-2 RBD (Wuhan-1), monomeric, His-Avitag (SARS-CoV-2, Wuhan-1) (UniProt P0DTC2). Put plainly: SPR. (In SPR one partner is held on a chip, and binding of the other changes the refractive index at the surface.)

Data on one substance can be found in publication PMC9367177.

Take CC12.1 IgG (antibody): the Kd was 6 nM.

As a reminder, the Kd is the free concentration of one partner at which half of the binding sites on the other are occupied at equilibrium, for simple one-to-one binding. Higher therefore signals lower affinity.
